This is an account of results in paper PMC7367873, “Dissecting the sequence determinants for dephosphorylation by the catalytic subunits of phosphatases PP1 and PP2A” (Nature Communications, 2020).

Experiment [1] relates to GFP-14-3-3β and its binding proteins. The experiment in a line: GFP-14-3-3β co-IP with LC-MS/MS label-free quantification, untreated versus PP1c-treated. More on the design: species or system human. As to conditions: 3 replicates each.
Another experiment relates to GFP-14-3-3β. The experiment is described as follows: GFP-14-3-3β co-IP with LC-MS/MS, untreated GFP-14-3-3β versus GFP control (14-3-3 interactome). In kind it is binding, human. The conditions noted are these: 3 replicates each.
Where [2] appears, read: PP1 vs untreated, LFQ intensities.
[3] abbreviates: untreated vs GFP, LFQ intensities.

B1: STT3A (protein, UniProt P46977 1-705, looked up)
Dolichyl-diphosphooligosacchar …: MTKFGFLRLSYEKQDTLLKLLILSMAAVLSFSTRLFAVLRFESVIHEFDPYFNYRTTRFLAEEGFYKFHNWFDDRAWYPLGRIIGGTIYPGLMITSAAIYHVLHFFHITIDIRNVCVFLAPLFSSFTTIVTYHLTKELKDAGAGLLAAAMIAVVPGYISRSVAGSYDNEGIAIFCMLLTYYMWIKAVKTGSICWAAKCALAYFYMVSSWGGYVFLINLIPLHVLVLMLTGRFSHRIYVAYCTVYCLGTILSMQISFVGFQPVLSSEHMAAFGVFGLCQIHAFVDYLRSKLNPQQFEVLFRSVISLVGFVLLTVGALLMLTGKISPWTGRFYSLLDPSYAKNNIPIIASVSEHQPTTWSSYYFDLQLLVFMFPVGLYYCFSNLSDARIFIIMYGVTSMYFSAVMVRLMLVLAPVMCILSGIGVSQVLSTYMKNLDISRPDKKSKKQQDSTYPIKNEVASGMILVMAFFLITYTFHSTWVTSEAYSSPSIVLSARGGDGSRIIFDDFREAYYWLRHNTPEDAKVMSWWDYGYQITAMANRTILVDNNTWNNTHISRVGQAMASTEEKAYEIMRELDVSYVLVIFGGLTGYSSDDINKFLWMVRIGGSTDTGKHIKENDYYTPTGEFRVDREGSPVLLNCLMYKMCYYRFGQVYTEAKRPPGFDRVRNAEIGNKDFELDVLEEAYTTEHWLVRIYKVKDLDNRGLSRT
In the case of B1, in experiment [1] (setting [2]), the “Difference (log2), PP1 vs untreated” value is reported as 0.5123 log2. Further, the “Difference (log2), untreated vs GFP” value in the experiment with GFP-14-3-3β (setting [3]) is 0.4915 log2.

B2: OASL (protein, UniProt Q15646 2-514, looked up)
2'-5'-oligoadenylate …: ALMQELYSTPASRLDSFVAQWLQPHREWKEEVLDAVRTVEEFLRQEHFQGKRGLDQDVRVLKVVKVGSFGNGTVLRSTREVELVAFLSCFHSFQEAAKHHKDVLRLIWKTMWQSQDLLDLGLEDLRMEQRVPDALVFTIQTRGTAEPITVTIVPAYRALGPSLPNSQPPPEVYVSLIKACGGPGNFCPSFSELQRNFVKHRPTKLKSLLRLVKHWYQQYVKARSPRANLPPLYALELLTIYAWEMGTEEDENFMLDEGFTTVMDLLLEYEVICIYWTKYYTLHNAIIEDCVRKQLKKERPIILDPADPTLNVAEGYRWDIVAQRASQCLKQDCCYDNRENPISSWNVKRARDIHLTVEQRGYPDFNLIVNPYEPIRKVKEKIRRTRGYSGLQRLSFQVPGSERQLLSSRCSLAKYGIFSHTHIYLLETIPSEIQVFVKNPDGGSYAYAINPNSFILGLKQQIEDQQGLPKKQQQLEFQGQVLQDWLGLGIYGIQDSDTLILSKKKGEALFPAS
With B2, the “Difference (log2), PP1 vs untreated” value in experiment [1] (log2 difference, pairwise comparison PP1 vs untreated, label-free quantification) was found to be 2.113. The “Difference (log2), untreated vs GFP” value with GFP-14-3-3β (log2 difference, pairwise comparison untreated vs GFP, label-free quantification) was -1.1672.

B3: FUBP3 (protein, UniProt Q96I24 2-572, looked up)
Far upstream element-binding …: AELVQGQSAPVGMKAEGFVDALHRVRQIAAKIDSIPHLNNSTPLVDPSVYGYGVQKRPLDDGVGNQLGALVHQRTVITEEFKVPDKMVGFIIGRGGEQISRIQAESGCKIQIASESSGIPERPCVLTGTPESIEQAKRLLGQIVDRCRNGPGFHNDIDSNSTIQEILIPASKVGLVIGRGGETIKQLQERTGVKMVMIQDGPLPTGADKPLRITGDAFKVQQAREMVLEIIREKDQADFRGVRGDFNSRMGGGSIEVSVPRFAVGIVIGRNGEMIKKIQNDAGVRIQFKPDDGISPERAAQVMGPPDRCQHAAHIISELILTAQERDGFGGLAAARGRGRGRGDWSVGAPGGVQEITYTVPADKCGLVIGKGGENIKSINQQSGAHVELQRNPPPNSDPNLRRFTIRGVPQQIEVARQLIDEKVGGTNLGAPGAFGQSPFSQPPAPPHQNTFPPRSSGCFPNMAAKVNGNPHSTPVSGPPAFLTQGWGSTYQAWQQPTQQVPSQQSQPQSSQPNYSKAWEDYYKKQSHAASAAPQASSPPDYTMAWAEYYRQQVAFYGQTLGQAQAHSQEQ
For the molecule B3, the “Difference (log2), PP1 vs untreated” value in experiment [1] (setting [2]) was determined as 0.5248 log2. Further, in the experiment with GFP-14-3-3β (setting [3]), the “Difference (log2), untreated vs GFP” value turned out to be 0.3039 log2.

B4: DDX5 (protein, UniProt P17844 1-614, looked up)
Probable ATP-dependent RNA …: MSGYSSDRDRGRDRGFGAPRFGGSRAGPLSGKKFGNPGEKLVKKKWNLDELPKFEKNFYQEHPDLARRTAQEVETYRRSKEITVRGHNCPKPVLNFYEANFPANVMDVIARQNFTEPTAIQAQGWPVALSGLDMVGVAQTGSGKTLSYLLPAIVHINHQPFLERGDGPICLVLAPTRELAQQVQQVAAEYCRACRLKSTCIYGGAPKGPQIRDLERGVEICIATPGRLIDFLECGKTNLRRTTYLVLDEADRMLDMGFEPQIRKIVDQIRPDRQTLMWSATWPKEVRQLAEDFLKDYIHINIGALELSANHNILQIVDVCHDVEKDEKLIRLMEEIMSEKENKTIVFVETKRRCDELTRKMRRDGWPAMGIHGDKSQQERDWVLNEFKHGKAPILIATDVASRGLDVEDVKFVINYDYPNSSEDYIHRIGRTARSTKTGTAYTFFTPNNIKQVSDLISVLREANQAINPKLLQLVEDRGSGRSRGRGGMKDDRRDRYSAGKRGGFNTFRDRENYDRGYSSLLKRDFGAKTQNGVYSAANYTNGSFGSNFVSAGIQTSFRTGNPTGTYQNGYDSTQQYGSNVPNMHNGMNQQAYAYPATAAAPMIGYPMPTGYSQ
Take B4: the “Difference (log2), PP1 vs untreated” value in experiment [1] (setting [2]) was determined as 0.5082 log2. In the experiment with GFP-14-3-3β (setting [3]), the “Difference (log2), untreated vs GFP” value was 0.1802 log2.

B5: RBM39 (protein, UniProt Q14498 2-530, looked up)
RNA-binding protein 39: ADDIDIEAMLEAPYKKDENKLSSANGHEERSKKRKKSKSRSRSHERKRSKSKERKRSRDRERKKSKSRERKRSRSKERRRSRSRSRDRRFRGRYRSPYSGPKFNSAIRGKIGLPHSIKLSRRRSRSKSPFRKDKSPVREPIDNLTPEERDARTVFCMQLAARIRPRDLEEFFSTVGKVRDVRMISDRNSRRSKGIAYVEFVDVSSVPLAIGLTGQRVLGVPIIVQASQAEKNRAAAMANNLQKGSAGPMRLYVGSLHFNITEDMLRGIFEPFGRIESIQLMMDSETGRSKGYGFITFSDSECAKKALEQLNGFELAGRPMKVGHVTERTDASSASSFLDSDELERTGIDLGTTGRLQLMARLAEGTGLQIPPAAQQALQMSGSLAFGAVAEFSFVIDLQTRLSQQTEASALAAAASVQPLATQCFQLSNMFNPQTEEEVGWDTEIKDDVIEECNKHGGVIHIYVDKNSAQGNVYVKCPSIAAAIAAVNALHGRWFAGKMITAAYVPLPTYHNLFPDSMTATQLLVPSRR
For the molecule B5, the “Difference (log2), PP1 vs untreated” value in experiment [1] (setting [2]) is on record as 0.4791 log2. Further, the “Difference (log2), untreated vs GFP” value in the experiment on GFP-14-3-3β (setting [3]) was 0.5608 log2.

B6: C14orf166 (protein, UniProt Q9Y224 1-244, looked up)
RNA transcription, …: MFRRKLTALDYHNPAGFNCKDETEFRNFIVWLEDQKIRHYKIEDRGNLRNIHSSDWPKFFEKYLRDVNCPFKIQDRQEAIDWLLGLAVRLEYGDNAEKYKDLVPDNSKTADNATKNAEPLINLDVNNPDFKAGVMALANLLQIQRHDDYLVMLKAIRILVQERLTQDAVAKANQTKEGLPVALDKHILGFDTGDAVLNEAAQILRLLHIEELRELQTKINEAIVAVQAIIADPKTDHRLGKVGR
B6: the “Difference (log2), PP1 vs untreated” value in experiment [1] (setting [2]) came to 0.4707 log2. Further, in the experiment with GFP-14-3-3β (setting [3]), the “Difference (log2), untreated vs GFP” value came to 1.488 log2.

B7: ATP5C1 (protein, UniProt P36542 26-298, looked up)
ATP synthase F(1) complex …: ATLKDITRRLKSIKNIQKITKSMKMVAAAKYARAERELKPARIYGLGSLALYEKADIKGPEDKKKHLLIGVSSDRGLCGAIHSSIAKQMKSEVATLTAAGKEVMLVGIGDKIRGILYRTHSDQFLVAFKEVGRKPPTFGDASVIALELLNSGYEFDEGSIIFNKFRSVISYKTEEKPIFSLNTVASADSMSIYDDIDADVLQNYQEYNLANIIYYSLKESTTSEQSARMTAMDNASKNASEMIDKLTLTFNRTRQAVITKELIEIISGAAALD
Consider B7, for which, in experiment [1] (setting [2]), the “Difference (log2), PP1 vs untreated” value was 0.4773 log2. Besides, the “Difference (log2), untreated vs GFP” value in the experiment on GFP-14-3-3β (setting [3]) worked out at 1.174 log2.

B8: PKP2 (protein, UniProt Q99959 1-881, looked up)
Plakophilin-2: MAAPGAPAEYGYIRTVLGQQILGQLDSSSLALPSEAKLKLAGSSGRGGQTVKSLRIQEQVQQTLARKGRSSVGNGNLHRTSSVPEYVYNLHLVENDFVGGRSPVPKTYDMLKAGTTATYEGRWGRGTAQYSSQKSVEERSLRHPLRRLEISPDSSPERAHYTHSDYQYSQRSQAGHTLHHQESRRAALLVPPRYARSEIVGVSRAGTTSRQRHFDTYHRQYQHGSVSDTVFDSIPANPALLTYPRPGTSRSMGNLLEKENYLTAGLTVGQVRPLVPLQPVTQNRASRSSWHQSSFHSTRTLREAGPSVAVDSSGRRAHLTVGQAAAGGSGNLLTERSTFTDSQLGNADMEMTLERAVSMLEADHMLPSRISAAATFIQHECFQKSEARKRVNQLRGILKLLQLLKVQNEDVQRAVCGALRNLVFEDNDNKLEVAELNGVPRLLQVLKQTRDLETKKQITDHTVNLRSRNGWPGAVAHACNPSTLGGQGGRITRSGVRDQPDQHGLLWNLSSNDKLKNLMITEALLTLTENIIIPFSGWPEGDYPKANGLLDFDIFYNVTGCLRNMSSAGADGRKAMRRCDGLIDSLVHYVRGTIADYQPDDKATENCVCILHNLSYQLEAELPEKYSQNIYIQNRNIQTDNNKSIGCFGSRSRKVKEQYQDVPMPEEKSNPKGVEWLWHSIVIRMYLSLIAKSVRNYTQEASLGALQNLTAGSGPMPTSVAQTVVQKESGLQHTRKMLHVGDPSVKKTAISLLRNLSRNLSLQNEIAKETLPDLVSIIPDTVPSTDLLIETTASACYTLNNIIQNSYQNARDLLNTGGIQKIMAISAGDAYASNKASKAASVLLYSLWAHTELHHAYKKAQFKKTDFVNSRTAKAYHSLKD
For B8, the “Difference (log2), PP1 vs untreated” value in experiment [1] (setting [2]) is 0.4916 log2. Also, in the experiment on GFP-14-3-3β (setting [3]), the “Difference (log2), untreated vs GFP” value was found to be 1.704 log2.

B9: SLC25A5 (protein, UniProt P05141 1-298, looked up)
ADP/ATP translocase 2: MTDAAVSFAKDFLAGGVAAAISKTAVAPIERVKLLLQVQHASKQITADKQYKGIIDCVVRIPKEQGVLSFWRGNLANVIRYFPTQALNFAFKDKYKQIFLGGVDKRTQFWLYFAGNLASGGAAGATSLCFVYPLDFARTRLAADVGKAGAEREFRGLGDCLVKIYKSDGIKGLYQGFNVSVQGIIIYRAAYFGIYDTAKGMLPDPKNTHIVISWMIAQTVTAVAGLTSYPFDTVRRRMMMQSGRKGTDIMYTGTLDCWRKIARDEGGKAFFKGAWSNVLRGMGGAFVLVLYDEIKKYT
As to B9, the “Difference (log2), PP1 vs untreated” value in experiment [1] (setting [2]) is 0.4677 log2. The “Difference (log2), untreated vs GFP” value in the experiment on GFP-14-3-3β (setting [3]) turned out to be 0.2489 log2.
